Experimental data published in publication PMC9352680, “A comprehensive thermodynamic model for RNA binding by the Saccharomyces cerevisiae Pumilio protein PUF4”.

B1: Ib_S1_P5E.1_K5.1_C5.1_H5.1_A5.1_[T6C]_F5.1_[T9C]_T5.1 (ssRNA)
RNA: UCUCUUUGUAUCAUCAUCUCUU
B2: Id_ii_S2_P5E.4_K5.3_C5.2_[C-2A]_[T-1C]_H5.3_A5.1_F5.1_T5.2_[A12T] (ssRNA)
RNA: UUUGAUUAAUAUGAUAUCGUUCUUUCUACACACUUAUUAUUUUCUUUCUCGAUAUCAUAUUAAUCUUU
B3: Id_ii_S2_P5E.4_K5.3_C5.2_[C-2A]_[T-1A]_H5.3_A5.1_F5.1_T5.2_[T11C]_[A12C] (ssRNA)
RNA: UUUGAUUAAUAUGAUAUCGUUCUUUCUAAACACUUAUUACCUUCUUUCUCGAUAUCAUAUUAAUCUUU
B4: Id_ii_S2_P5E.4_K5.3_C5.2_[T-1C]_H5.3_A5.1_F5.1_T5.2_[A12C] (ssRNA)
RNA: UUUGAUUAAUAUGAUAUCGUUCUUUCUCCACACUUAUUAUCUUCUUUCUCGAUAUCAUAUUAAUCUUU
B5: Id_ii_S2_P5E.4_K5.3_C5.2_[C-2A]_H5.3_A5.1_F5.1_T5.2_[T11A]_[A12T] (ssRNA)
RNA: UUUGAUUAAUAUGAUAUCGUUCUUUCUAUACACUUAUUAAUUUCUUUCUCGAUAUCAUAUUAAUCUUU
B6: Id_ii_S2_P5E.4_K5.3_C5.2_[T-1G]_H5.3_A5.1_F5.1_T5.2_[A12C] (ssRNA)
RNA: UUUGAUUAAUAUGAUAUCGUUCUUUCUCGACACUUAUUAUCUUCUUUCUCGAUAUCAUAUUAAUCUUU
B7: Id_ii_S2_P5E.4_K5.3_C5.2_[T-1C]_H5.3_A5.1_F5.1_T5.2_[T11A] (ssRNA)
RNA: UUUGAUUAAUAUGAUAUCGUUCUUUCUCCACACUUAUUAAAUUCUUUCUCGAUAUCAUAUUAAUCUUU
B8: Id_ii_S2_P5E.4_K5.3_C5.2_[C-2A]_[T-1A]_H5.3_A5.1_F5.1_T5.2_[A12C] (ssRNA)
RNA: UUUGAUUAAUAUGAUAUCGUUCUUUCUAAACACUUAUUAUCUUCUUUCUCGAUAUCAUAUUAAUCUUU
B9: Id_ii_S2_P5E.4_K5.3_C5.2_[T-1G]_H5.3_A5.1_F5.1_T5.2_[T11C] (ssRNA)
RNA: UUUGAUUAAUAUGAUAUCGUUCUUUCUCGACACUUAUUACAUUCUUUCUCGAUAUCAUAUUAAUCUUU
B10: Id_ii_S2_P5E.4_K5.3_C5.2_[C-2A]_H5.3_A5.1_F5.1_T5.2_[A12G] (ssRNA)
RNA: UUUGAUUAAUAUGAUAUCGUUCUUUCUAUACACUUAUUAUGUUCUUUCUCGAUAUCAUAUUAAUCUUU
B11: Id_ii_S2_P5E.4_K5.3_C5.2_[T-1C]_H5.3_A5.1_F5.1_T5.2_[T11C] (ssRNA)
RNA: UUUGAUUAAUAUGAUAUCGUUCUUUCUCCACACUUAUUACAUUCUUUCUCGAUAUCAUAUUAAUCUUU
B12: Id_ii_S2_P5E.4_K5.3_C5.2_[T-1A]_H5.3_A5.1_F5.1_T5.2_[T11C]_[A12G] (ssRNA)
RNA: UUUGAUUAAUAUGAUAUCGUUCUUUCUCAACACUUAUUACGUUCUUUCUCGAUAUCAUAUUAAUCUUU
B13: Id_ii_S2_P5E.4_K5.3_C5.2_[C-2A]_[T-1A]_H5.3_A5.1_F5.1_T5.2 (ssRNA)
RNA: UUUGAUUAAUAUGAUAUCGUUCUUUCUAAACACUUAUUAUAUUCUUUCUCGAUAUCAUAUUAAUCUUU
B14: Id_ii_S2_P5E.4_K5.3_C5.2_[C-2A]_H5.3_A5.1_F5.1_T5.2_[T11C] (ssRNA)
RNA: UUUGAUUAAUAUGAUAUCGUUCUUUCUAUACACUUAUUACAUUCUUUCUCGAUAUCAUAUUAAUCUUU
B15: Id_ii_S2_P5E.4_K5.3_C5.2_[T-1G]_H5.3_A5.1_F5.1_T5.2 (ssRNA)
RNA: UUUGAUUAAUAUGAUAUCGUUCUUUCUCGACACUUAUUAUAUUCUUUCUCGAUAUCAUAUUAAUCUUU
B16: Id_ii_S2_P5E.4_K5.3_C5.2_[C-2A]_[T-1A]_H5.3_A5.1_F5.1_T5.2_[T11A] (ssRNA)
RNA: UUUGAUUAAUAUGAUAUCGUUCUUUCUAAACACUUAUUAAAUUCUUUCUCGAUAUCAUAUUAAUCUUU
B17: Id_ii_S2_P5E.4_K5.3_C5.2_[T-1C]_H5.3_A5.1_F5.1_T5.2_[T11G]_[A12C] (ssRNA)
RNA: UUUGAUUAAUAUGAUAUCGUUCUUUCUCCACACUUAUUAGCUUCUUUCUCGAUAUCAUAUUAAUCUUU
B18: Id_ii_S2_P5E.4_K5.3_C5.2_[C-2A]_H5.3_A5.1_F5.1_T5.2_[A12C] (ssRNA)
RNA: UUUGAUUAAUAUGAUAUCGUUCUUUCUAUACACUUAUUAUCUUCUUUCUCGAUAUCAUAUUAAUCUUU
B19: Id_ii_S2_P5E.4_K5.3_C5.2_[C-2A]_H5.3_A5.1_F5.1_T5.2 (ssRNA)
RNA: UUUGAUUAAUAUGAUAUCGUUCUUUCUAUACACUUAUUAUAUUCUUUCUCGAUAUCAUAUUAAUCUUU
B20: Id_ii_S2_P5E.4_K5.3_C5.2_[C-2A]_[T-1A]_H5.3_A5.1_F5.1_T5.2_[A12T] (ssRNA)
RNA: UUUGAUUAAUAUGAUAUCGUUCUUUCUAAACACUUAUUAUUUUCUUUCUCGAUAUCAUAUUAAUCUUU
B21: Id_ii_S2_P5E.4_K5.3_C5.2_[T-1C]_H5.3_A5.1_F5.1_T5.2_[T11C]_[A12G] (ssRNA)
RNA: UUUGAUUAAUAUGAUAUCGUUCUUUCUCCACACUUAUUACGUUCUUUCUCGAUAUCAUAUUAAUCUUU
B22: Id_ii_S2_P5E.4_K5.3_C5.2_[C-2A]_H5.3_A5.1_F5.1_T5.2_[T11C]_[A12T] (ssRNA)
RNA: UUUGAUUAAUAUGAUAUCGUUCUUUCUAUACACUUAUUACUUUCUUUCUCGAUAUCAUAUUAAUCUUU
B23: Id_ii_S2_P5E.4_K5.3_C5.2_[C-2A]_[T-1A]_H5.3_A5.1_F5.1_T5.2_[T11C]_[A12G] (ssRNA)
RNA: UUUGAUUAAUAUGAUAUCGUUCUUUCUAAACACUUAUUACGUUCUUUCUCGAUAUCAUAUUAAUCUUU
B24: Id_ii_S2_P5E.4_K5.3_C5.2_[T-1C]_H5.3_A5.1_F5.1_T5.2_[T11C]_[A12C] (ssRNA)
RNA: UUUGAUUAAUAUGAUAUCGUUCUUUCUCCACACUUAUUACCUUCUUUCUCGAUAUCAUAUUAAUCUUU
B25: Id_ii_S2_P5E.4_K5.3_C5.2_[T-1C]_H5.3_A5.1_F5.1_T5.2_[A12T] (ssRNA)
RNA: UUUGAUUAAUAUGAUAUCGUUCUUUCUCCACACUUAUUAUUUUCUUUCUCGAUAUCAUAUUAAUCUUU
B26: Id_ii_S2_P5E.4_K5.3_C5.2_[T-1G]_H5.3_A5.1_F5.1_T5.2_[T11C]_[A12T] (ssRNA)
RNA: UUUGAUUAAUAUGAUAUCGUUCUUUCUCGACACUUAUUACUUUCUUUCUCGAUAUCAUAUUAAUCUUU
B27: Id_ii_S2_P5E.4_K5.3_C5.2_[T-1G]_H5.3_A5.1_F5.1_T5.2_[A12T] (ssRNA)
RNA: UUUGAUUAAUAUGAUAUCGUUCUUUCUCGACACUUAUUAUUUUCUUUCUCGAUAUCAUAUUAAUCUUU
B28: Id_ii_S2_P5E.4_K5.3_C5.2_[C-2A]_H5.3_A5.1_F5.1_T5.2_[T11C]_[A12C] (ssRNA)
RNA: UUUGAUUAAUAUGAUAUCGUUCUUUCUAUACACUUAUUACCUUCUUUCUCGAUAUCAUAUUAAUCUUU
B29: Id_ii_S2_P5E.4_K5.3_C5.2_[C-2A]_H5.3_A5.1_F5.1_T5.2_[A12T] (ssRNA)
RNA: UUUGAUUAAUAUGAUAUCGUUCUUUCUAUACACUUAUUAUUUUCUUUCUCGAUAUCAUAUUAAUCUUU
B30: Id_ii_S2_P5E.4_K5.3_C5.2_[C-2A]_H5.3_A5.1_F5.1_T5.2_[T11A] (ssRNA)
RNA: UUUGAUUAAUAUGAUAUCGUUCUUUCUAUACACUUAUUAAAUUCUUUCUCGAUAUCAUAUUAAUCUUU
B31: Id_ii_S2_P5E.4_K5.3_C5.2_[T-1C]_H5.3_A5.1_F5.1_T5.2 (ssRNA)
RNA: UUUGAUUAAUAUGAUAUCGUUCUUUCUCCACACUUAUUAUAUUCUUUCUCGAUAUCAUAUUAAUCUUU
B32: Id_ii_S2_P5E.4_K5.3_C5.2_[T-1A]_H5.3_A5.1_F5.1_T5.2_[T11C]_[A12C] (ssRNA)
RNA: UUUGAUUAAUAUGAUAUCGUUCUUUCUCAACACUUAUUACCUUCUUUCUCGAUAUCAUAUUAAUCUUU
B33: Id_ii_S2_P5E.4_K5.3_C5.2_[C-2A]_[T-1C]_H5.3_A5.1_F5.1_T5.2 (ssRNA)
RNA: UUUGAUUAAUAUGAUAUCGUUCUUUCUACACACUUAUUAUAUUCUUUCUCGAUAUCAUAUUAAUCUUU
B34: Id_ii_S2_P5E.4_K5.3_C5.2_[T-1G]_H5.3_A5.1_F5.1_T5.2_[T11A]_[A12C] (ssRNA)
RNA: UUUGAUUAAUAUGAUAUCGUUCUUUCUCGACACUUAUUAACUUCUUUCUCGAUAUCAUAUUAAUCUUU
B35: Id_ii_S2_P5E.4_K5.3_C5.2_[C-2A]_H5.3_A5.1_F5.1_T5.2_[T11C]_[A12G] (ssRNA)
RNA: UUUGAUUAAUAUGAUAUCGUUCUUUCUAUACACUUAUUACGUUCUUUCUCGAUAUCAUAUUAAUCUUU
B36: Id_ii_S2_P5E.4_K5.3_C5.2_[C-2A]_H5.3_A5.1_F5.1_T5.2_[T11A]_[A12C] (ssRNA)
RNA: UUUGAUUAAUAUGAUAUCGUUCUUUCUAUACACUUAUUAACUUCUUUCUCGAUAUCAUAUUAAUCUUU
B37: Id_ii_S2_P5E.4_K5.3_C5.2_[C-2A]_[T-1A]_H5.3_A5.1_F5.1_T5.2_[T11C] (ssRNA)
RNA: UUUGAUUAAUAUGAUAUCGUUCUUUCUAAACACUUAUUACAUUCUUUCUCGAUAUCAUAUUAAUCUUU
B38: Id_ii_S2_P5E.4_K5.3_C5.2_[C-2A]_H5.3_A5.1_F5.1_T5.2_[T11G]_[A12C] (ssRNA)
RNA: UUUGAUUAAUAUGAUAUCGUUCUUUCUAUACACUUAUUAGCUUCUUUCUCGAUAUCAUAUUAAUCUUU
B39: Ic_S1_P5E.1_K5.1_C5.1_H5.1_A5.1_[T6A]_F5.1_[T9C]_T5.1 (ssRNA)
RNA: UCUCUUUGUAUAAUCAUCUCUU
B40: Ib_S1_P5E.1_K5.1_C5.1_H5.1_A5.1_[T6A]_F5.1_[T9A]_T5.1 (ssRNA)
RNA: UCUCUUUGUAUAAUAAUCUCUU
B41: Ia_S1_P5E.1_K5.1_C5.1_H5.1_[A4T]_A5.1_F5.1_T5.1 (ssRNA)
RNA: UCUCUUUGUUUUAUUAUCUCUU
B42: Ib_S1_P5E.1_K5.1_C5.1_H5.1_A5.1_[T6C]_F5.1_[T9A]_T5.1 (ssRNA)
RNA: UCUCUUUGUAUCAUAAUCUCUU

Molecular target: T1, PUF4 RNA-binding domain (Saccharomyces cerevisiae, UniProt P25339 537-888)
T1 sequence: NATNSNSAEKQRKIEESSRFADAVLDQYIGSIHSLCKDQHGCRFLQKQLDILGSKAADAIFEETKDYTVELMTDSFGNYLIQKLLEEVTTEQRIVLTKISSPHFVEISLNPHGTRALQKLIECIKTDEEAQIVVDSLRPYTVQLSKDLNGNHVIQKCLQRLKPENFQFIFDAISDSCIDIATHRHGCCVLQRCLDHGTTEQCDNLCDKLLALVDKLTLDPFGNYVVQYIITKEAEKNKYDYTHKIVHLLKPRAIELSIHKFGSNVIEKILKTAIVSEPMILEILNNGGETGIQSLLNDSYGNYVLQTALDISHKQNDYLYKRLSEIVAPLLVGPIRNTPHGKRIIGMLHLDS
Experiment: Mg; RNA-MaP; 20 mM Na-HEPES pH 7.4, 30 mM KOAc, 0.75 mM MgCl2, 0.1% Tween-20, 5% glycerol, 0.1 mg/mL BSA, 2 mM DTT; 25 C; 0.0125-409.6 nM protein
Details: tags: N-His6-TEV cleaved; C-SNAP kept, Cy3B-labelled; label: tethered on chip by stalled RNA polymerase

Row | Binder | Kd
1 | B1 | 15.5 nM
2 | B2 | > 2300 nM
3 | B3 | > 2300 nM
4 | B4 | > 2300 nM
5 | B5 | 129 nM
6 | B6 | > 2300 nM
7 | B7 | > 2300 nM
8 | B8 | > 2300 nM
9 | B9 | > 2300 nM
10 | B10 | 1310 nM
11 | B11 | > 2300 nM
12 | B12 | > 2300 nM
13 | B13 | 875 nM
14 | B14 | 136 nM
15 | B15 | 831 nM
16 | B16 | > 2300 nM
17 | B17 | > 2300 nM
18 | B18 | 131 nM
19 | B19 | 674 nM
20 | B20 | > 2300 nM
21 | B21 | > 2300 nM

Row | Binder | Kd
22 | B22 | 117 nM
23 | B23 | > 2300 nM
24 | B24 | > 2300 nM
25 | B25 | 1720 nM
26 | B26 | > 2300 nM
27 | B27 | > 2300 nM
28 | B28 | 110 nM
29 | B29 | 97.8 nM
30 | B30 | 208 nM
31 | B31 | 651 nM
32 | B32 | > 2300 nM
33 | B33 | 754 nM
34 | B34 | > 2300 nM
35 | B35 | 674 nM
36 | B36 | 161 nM
37 | B37 | > 2300 nM
38 | B38 | 902 nM
39 | B39 | 19.7 nM
40 | B40 | 1.68 nM
41 | B41 | 24.7 nM
42 | B42 | 2.4 nM
